Data on one substance can be found in paper doi:10.1101/2024.12.10.627789.

pKd: −log10 of the molar value.

In general, pKd refers to the negative decadic logarithm of the Kd, by convention in mol/L. A low value points to a high Kd.

This experiment has as its target CAM1. The experiment in a line: ITC. (In general: Isothermal titration calorimetry measures the heat released or taken up as one component is titrated into another.)

CBD peptide of eEF2K had a negative-log Kd (pKd) of 6.59.
